Consider two molecules from US20260098075A1.

The target of the assay is human ROR1 (tyrosine-protein kinase transmembrane receptor ROR1) (human), Q01973. Kind of assay: cell-based or functional assay.
Chain of human ROR1 (tyrosine-protein kinase transmembrane receptor ROR1) (human), Q01973 (Q01973 30-937): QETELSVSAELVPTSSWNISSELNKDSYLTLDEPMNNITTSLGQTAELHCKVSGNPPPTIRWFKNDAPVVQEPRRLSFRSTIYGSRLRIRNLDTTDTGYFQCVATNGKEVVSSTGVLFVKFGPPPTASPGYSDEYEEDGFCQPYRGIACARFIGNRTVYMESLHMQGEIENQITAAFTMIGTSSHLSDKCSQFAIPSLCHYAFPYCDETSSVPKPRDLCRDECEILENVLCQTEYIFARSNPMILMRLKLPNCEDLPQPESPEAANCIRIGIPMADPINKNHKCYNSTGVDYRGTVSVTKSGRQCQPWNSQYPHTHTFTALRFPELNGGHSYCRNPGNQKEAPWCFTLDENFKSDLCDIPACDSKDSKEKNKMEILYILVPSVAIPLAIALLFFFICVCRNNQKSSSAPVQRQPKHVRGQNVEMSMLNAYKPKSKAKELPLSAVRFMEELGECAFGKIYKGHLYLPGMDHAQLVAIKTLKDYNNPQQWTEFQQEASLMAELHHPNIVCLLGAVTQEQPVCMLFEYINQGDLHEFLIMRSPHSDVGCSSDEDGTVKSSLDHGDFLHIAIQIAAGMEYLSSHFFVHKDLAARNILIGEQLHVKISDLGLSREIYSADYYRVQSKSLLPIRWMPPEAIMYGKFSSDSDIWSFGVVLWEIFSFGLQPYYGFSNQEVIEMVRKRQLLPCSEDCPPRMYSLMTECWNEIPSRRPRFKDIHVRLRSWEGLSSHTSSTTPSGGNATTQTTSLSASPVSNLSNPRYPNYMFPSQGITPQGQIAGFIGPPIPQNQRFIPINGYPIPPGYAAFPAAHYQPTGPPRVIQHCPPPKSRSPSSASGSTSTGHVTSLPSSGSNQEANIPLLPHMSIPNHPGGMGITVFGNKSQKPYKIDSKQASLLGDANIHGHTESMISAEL

B1: R11 CAR against ROR1 with Spacer 5 (protein)
chain: QSVKESEGDLVTPAGNLTLTCTASGSDINDYPISWVRQAPGKGLEWIGFINSGGSTWYASWVKGRFTISRTSTTVDLKMTSLTTDDTATYFCARGYSTYYGDFNIWGPGTLVTISSGGGGSGGGGSGGGGSELVMTQTPSSTSGAVGGTVTINCQASQSIDSNLAWFQQKPGQPPTLLIYRASNLASGVPSRFSGSRSGTEYTLTISGVQREDAATYYCLGGVGNVSYRTSFGGGTEVVVKTGGGGSGCPRCPEPKSCDTPPPCPRCPEPKSCDTPPPCPRCPEPKSCDTPPPCPRCPAPMFWVLVVVGGVLACYSLLVTVAFIIFWVKRGRKKLLYIFKQPFMRPVQTTQEEDGCSCRFPEEEEGGCELRVKFSRSADAPAYQQGQNQLYNELNLGRREEYDVLDKRRGRDPEMGGKPRRKNPQEGLYNELQKDKMAEAYSEIGMKGERRRGKGHDGLYQGLSTATKDTYDALHMQALPPR
For the molecule B1, the A549 IFNg, donor 5018 was 60900; the A549 IFNg, donor 7811 was found to be 83600; the A549 IL-2, donor 5018 was determined as 10; the A549 IL-2, donor 7811 stood at 87. This molecule also returned an A549 normalized AUC, donor 5018 of 55.8; an A549 normalized AUC, donor 7811 of 48.8; an H1975 IFNg, donor 5018 of 17300; an H1975 IFNg, donor 7811 of 32400. The molecule also had an H1975 IL-2, donor 5018 of 2; an H1975 IL-2, donor 7811 of 16; an H1975 normalized AUC, donor 5018 of 86.7; an H1975 normalized AUC, donor 7811 of 69.6.

B2: R11 CAR against ROR1 with Spacer 6 (protein)
chain: QSVKESEGDLVTPAGNLTLTCTASGSDINDYPISWVRQAPGKGLEWIGFINSGGSTWYASWVKGRFTISRTSTTVDLKMTSLTTDDTATYFCARGYSTYYGDFNIWGPGTLVTISSGGGGSGGGGSGGGGSELVMTQTPSSTSGAVGGTVTINCQASQSIDSNLAWFQQKPGQPPTLLIYRASNLASGVPSRFSGSRSGTEYTLTISGVQREDAATYYCLGGVGNVSYRTSFGGGTEVVVKTGGGGSGEPKSCDTPPPCPRCPEPKSCDTPPPCPRCPEPKSCDTPPPCPRCPAPMFWVLVVVGGVLACYSLLVTVAFIIFWVKRGRKKLLYIFKQPFMRPVQTTQEEDGCSCRFPEEEEGGCELRVKFSRSADAPAYQQGQNQLYNELNLGRREEYDVLDKRRGRDPEMGGKPRRKNPQEGLYNELQKDKMAEAYSEIGMKGERRRGKGHDGLYQGLSTATKDTYDALHMQALPPR
Molecule B2 had an A549 IFNg, donor 5018 of 46300; an A549 IFNg, donor 7811 of 86700; an A549 IL-2, donor 5018 of 10; an A549 IL-2, donor 7811 of 89. Moreover, the A549 normalized AUC, donor 5018 was 58.4; the A549 normalized AUC, donor 7811 was 51.4; the H1975 IFNg, donor 5018 was determined as 7170; the H1975 IFNg, donor 7811 amounted to 11900. For the same molecule, the H1975 IL-2, donor 5018 was found to be 1; the H1975 IL-2, donor 7811 amounted to 2; the H1975 normalized AUC, donor 5018 was determined as 114; the H1975 normalized AUC, donor 7811 amounted to 96.5.
